Measured values reported in PMC12678800.

T1: TkoTpt1 K63A (Thermococcus kodakarensis, UniProt Q5JFX3 1-180, K63A)
T1 sequence: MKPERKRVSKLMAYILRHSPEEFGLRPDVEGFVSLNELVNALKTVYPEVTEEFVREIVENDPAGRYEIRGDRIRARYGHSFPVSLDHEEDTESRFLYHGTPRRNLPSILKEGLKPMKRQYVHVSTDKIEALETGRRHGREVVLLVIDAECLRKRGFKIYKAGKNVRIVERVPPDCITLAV

T2: TkoTpt1 (Thermococcus kodakarensis, UniProt Q5JFX3 1-180)
T2 sequence: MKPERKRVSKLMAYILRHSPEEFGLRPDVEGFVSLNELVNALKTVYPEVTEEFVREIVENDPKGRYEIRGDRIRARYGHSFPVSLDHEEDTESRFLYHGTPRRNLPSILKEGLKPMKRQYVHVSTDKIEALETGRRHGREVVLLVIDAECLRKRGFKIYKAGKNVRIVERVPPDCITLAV


Experiments:
TkoTpt1 K63A = biological target: T1, TkoTpt1 K63A; test: X-ray crystallography
TkoTpt1 = biological target: T2, TkoTpt1; test: X-ray crystallography

Binder	binding result (TkoTpt1 K63A)	binding result (TkoTpt1)
AAAAAAAAAA (ssDNA, 5'-phospho-ADP-ribosylated, formed in situ from 5'-p-DNA and NAD+) [5'-p-ADPR-DNA (dA10 intermediate)]	binds	–
AAAAAAAAAA (ssDNA, 5'-phosphate (lost to NAD+ in the Appr>P complexes, giving 5'-OH DNA)) [5'-p-DNA (oligo dA10)]	–	binds
